B1: Ubiquitin-protein ligase (Homo sapiens), Q05086-3 (parent)
chain: MATACKRSGEPQSDDIEASRMKRAAAKHLIERYYHQLTEGCGNEACTNEFCASCPTFLRMDNNAAAIKALELYKINAKLCDPHPSKKGASSAYLENSKGAPNNSCSEIKMNKKGARIDFKDVTYLTEEKVYEILELCREREDYSPLIRVIGRVFSSAEALVQSFRKVKQHTKEELKSLQAKDEDKDEDEKEKAACSAAAMEEDSEASSSRIGDSSQGDNNLQKLGPDDVSVDIDAIRRVYTRLLSNEKIETAFLNALVYLSPNVECDLTYHNVYSRDPNYLNLFIIVMENRNLHSPEYLEMALPLFCKAMSKLPLAAQGKLIRLWSKYNADQIRRMMETFQQLITYKVISNEFNSRNLVNDDDAIVAASKCLKMVYYANVVGGEVDTNHNEEDDEEPIPESSELTLQELLGEERRNKKGPRVDPLETELGVKTLDCRKPLIPFEEFINEPLNEVLEMDKDYTFFKVETENKFSFMTCPFILNAVTKNLGLYYDNRIRMYSERRITVLYSLVQGQQLNPYLRLKVRRDHIIDDALVRLEMIAMENPADLKKQLYVEFEGEQGVDEGGVSKEFFQLVVEEIFNPDIGMFTYDESTKLFWFNPSSFETEGQFTLIGIVLGLAIYNNCILDVHFPMVVYRKLMGKKGTFRDLGDSHPVLYQSLKDLLEYEGNVEDDMMITFQISQTDLFGNPMMYDLKENGDKIPITNENRKEFVNLYSDYILNKSVEKQFKAFRRGFHMVTNESPLKYLFRPEEIELLICGSRNLDFQALEETTEYDGGYTRDSVLIREFWEIVHSFTDEQKRLFLQFTTGTDRAPVGGLGKLKMIIAKNGPDTERLPTSHTCFNVLLLPEYSSKEKLKERLLKAITYAKGFGML
B2: Ubiquitin-protein ligase (Homo sapiens), Q05086-3 (parent)
chain: B1 chain
partner: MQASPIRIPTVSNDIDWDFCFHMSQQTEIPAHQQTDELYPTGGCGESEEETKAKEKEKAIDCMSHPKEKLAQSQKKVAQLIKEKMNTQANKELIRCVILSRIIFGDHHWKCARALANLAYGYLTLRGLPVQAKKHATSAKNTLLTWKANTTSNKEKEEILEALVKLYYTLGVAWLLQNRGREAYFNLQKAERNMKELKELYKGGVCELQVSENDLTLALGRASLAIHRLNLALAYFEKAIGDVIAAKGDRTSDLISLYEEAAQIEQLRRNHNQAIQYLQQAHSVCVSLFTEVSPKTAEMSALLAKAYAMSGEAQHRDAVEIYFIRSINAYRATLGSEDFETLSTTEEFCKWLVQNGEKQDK
B3: Ubiquitin-protein ligase (Homo sapiens), Q05086-3 (parent)
chain: B1 chain
partner: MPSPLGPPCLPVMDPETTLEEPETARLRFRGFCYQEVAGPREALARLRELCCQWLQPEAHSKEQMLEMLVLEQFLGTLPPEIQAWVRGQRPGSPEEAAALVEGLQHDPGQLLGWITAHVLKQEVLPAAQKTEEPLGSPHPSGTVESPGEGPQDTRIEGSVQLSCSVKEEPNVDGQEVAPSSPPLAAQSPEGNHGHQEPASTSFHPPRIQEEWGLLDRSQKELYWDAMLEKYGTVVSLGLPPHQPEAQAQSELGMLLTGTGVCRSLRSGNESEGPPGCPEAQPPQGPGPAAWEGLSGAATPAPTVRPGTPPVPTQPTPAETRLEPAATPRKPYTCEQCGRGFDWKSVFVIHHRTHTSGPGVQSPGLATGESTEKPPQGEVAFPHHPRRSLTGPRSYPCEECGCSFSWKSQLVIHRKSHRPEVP
B4: Ubiquitin-protein ligase (Homo sapiens), Q05086-2 (parent)
chain: MKRAAAKHLIERYYHQLTEGCGNEACTNEFCASCPTFLRMDNNAAAIKALELYKINAKLCDPHPSKKGASSAYLENSKGAPNNSCSEIKMNKKGARIDFKDVTYLTEEKVYEILELCREREDYSPLIRVIGRVFSSAEALVQSFRKVKQHTKEELKSLQAKDEDKDEDEKEKAACSAAAMEEDSEASSSRIGDSSQGDNNLQKLGPDDVSVDIDAIRRVYTRLLSNEKIETAFLNALVYLSPNVECDLTYHNVYSRDPNYLNLFIIVMENRNLHSPEYLEMALPLFCKAMSKLPLAAQGKLIRLWSKYNADQIRRMMETFQQLITYKVISNEFNSRNLVNDDDAIVAASKCLKMVYYANVVGGEVDTNHNEEDDEEPIPESSELTLQELLGEERRNKKGPRVDPLETELGVKTLDCRKPLIPFEEFINEPLNEVLEMDKDYTFFKVETENKFSFMTCPFILNAVTKNLGLYYDNRIRMYSERRITVLYSLVQGQQLNPYLRLKVRRDHIIDDALVRLEMIAMENPADLKKQLYVEFEGEQGVDEGGVSKEFFQLVVEEIFNPDIGMFTYDESTKLFWFNPSSFETEGQFTLIGIVLGLAIYNNCILDVHFPMVVYRKLMGKKGTFRDLGDSHPVLYQSLKDLLEYEGNVEDDMMITFQISQTDLFGNPMMYDLKENGDKIPITNENRKEFVNLYSDYILNKSVEKQFKAFRRGFHMVTNESPLKYLFRPEEIELLICGSRNLDFQALEETTEYDGGYTRDSVLIREFWEIVHSFTDEQKRLFLQFTTGTDRAPVGGLGKLKMIIAKNGPDTERLPTSHTCFNVLLLPEYSSKEKLKERLLKAITYAKGFGML

Variants of: B1
Details: with ZNF250, P15622-3
Target sequence in this assay (P15622 other isoform, or with tags, fused parts or gaps): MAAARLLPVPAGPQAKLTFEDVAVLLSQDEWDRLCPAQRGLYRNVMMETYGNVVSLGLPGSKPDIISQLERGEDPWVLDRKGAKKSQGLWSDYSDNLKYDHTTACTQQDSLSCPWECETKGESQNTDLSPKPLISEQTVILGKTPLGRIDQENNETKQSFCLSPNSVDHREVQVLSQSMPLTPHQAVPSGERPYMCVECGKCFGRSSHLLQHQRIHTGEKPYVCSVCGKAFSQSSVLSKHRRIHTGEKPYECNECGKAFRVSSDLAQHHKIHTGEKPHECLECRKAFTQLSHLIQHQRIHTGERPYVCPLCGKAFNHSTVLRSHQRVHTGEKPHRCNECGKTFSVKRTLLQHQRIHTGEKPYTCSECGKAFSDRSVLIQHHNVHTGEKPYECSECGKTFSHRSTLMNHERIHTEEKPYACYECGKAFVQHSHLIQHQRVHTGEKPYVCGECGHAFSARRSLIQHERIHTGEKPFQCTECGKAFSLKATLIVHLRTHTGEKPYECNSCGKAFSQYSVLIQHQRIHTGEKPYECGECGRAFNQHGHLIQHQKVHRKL

effect of a mutation on the interaction | Variant
causing an interaction | C840A

Variants of: B1
Details: with PAX6, P26367-1
Target sequence in this assay (P26367 whole entry): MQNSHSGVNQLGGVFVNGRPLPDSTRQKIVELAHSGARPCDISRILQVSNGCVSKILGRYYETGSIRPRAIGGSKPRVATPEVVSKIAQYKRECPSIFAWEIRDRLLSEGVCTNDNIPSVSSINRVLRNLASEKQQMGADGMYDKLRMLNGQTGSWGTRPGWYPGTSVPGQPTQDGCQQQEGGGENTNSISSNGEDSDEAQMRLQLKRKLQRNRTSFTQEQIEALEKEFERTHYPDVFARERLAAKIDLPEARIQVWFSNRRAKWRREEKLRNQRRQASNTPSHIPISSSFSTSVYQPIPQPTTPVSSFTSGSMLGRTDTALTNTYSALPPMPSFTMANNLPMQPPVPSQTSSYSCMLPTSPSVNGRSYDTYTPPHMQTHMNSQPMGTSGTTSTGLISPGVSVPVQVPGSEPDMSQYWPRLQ

effect of a mutation on the interaction | Variant
causing an interaction | C840A

Variants of: B1
Details: with magac_human MAGEA12, P43365
Target sequence in this assay (P43365 whole entry): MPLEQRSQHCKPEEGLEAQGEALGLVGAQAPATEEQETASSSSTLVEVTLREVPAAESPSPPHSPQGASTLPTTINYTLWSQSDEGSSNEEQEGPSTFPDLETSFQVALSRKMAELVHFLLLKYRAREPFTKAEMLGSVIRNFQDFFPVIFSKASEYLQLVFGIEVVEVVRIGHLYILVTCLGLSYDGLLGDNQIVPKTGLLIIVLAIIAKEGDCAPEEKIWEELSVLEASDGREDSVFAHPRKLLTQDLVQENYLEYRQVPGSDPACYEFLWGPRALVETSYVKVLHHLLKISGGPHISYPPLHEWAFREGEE

effect of a mutation on the interaction | Variant
with no effect | C840A

Variants of: B1
Details: with PSMD4, P55036-1
Target sequence in this assay (P55036 whole entry): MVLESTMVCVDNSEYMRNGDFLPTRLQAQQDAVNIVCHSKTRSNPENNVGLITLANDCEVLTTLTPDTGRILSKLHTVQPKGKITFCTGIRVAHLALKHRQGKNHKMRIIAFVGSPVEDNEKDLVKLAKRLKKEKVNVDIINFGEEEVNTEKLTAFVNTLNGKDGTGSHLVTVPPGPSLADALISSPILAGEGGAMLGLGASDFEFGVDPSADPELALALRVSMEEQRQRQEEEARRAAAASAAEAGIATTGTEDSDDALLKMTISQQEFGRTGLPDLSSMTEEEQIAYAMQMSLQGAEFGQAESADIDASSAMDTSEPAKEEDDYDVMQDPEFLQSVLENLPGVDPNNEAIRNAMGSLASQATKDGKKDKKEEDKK

effect of a mutation on the interaction | Variant
with no effect | C840A

Variants of: B1
Details: with PAX5, Q02548-1
Target sequence in this assay (Q02548 whole entry): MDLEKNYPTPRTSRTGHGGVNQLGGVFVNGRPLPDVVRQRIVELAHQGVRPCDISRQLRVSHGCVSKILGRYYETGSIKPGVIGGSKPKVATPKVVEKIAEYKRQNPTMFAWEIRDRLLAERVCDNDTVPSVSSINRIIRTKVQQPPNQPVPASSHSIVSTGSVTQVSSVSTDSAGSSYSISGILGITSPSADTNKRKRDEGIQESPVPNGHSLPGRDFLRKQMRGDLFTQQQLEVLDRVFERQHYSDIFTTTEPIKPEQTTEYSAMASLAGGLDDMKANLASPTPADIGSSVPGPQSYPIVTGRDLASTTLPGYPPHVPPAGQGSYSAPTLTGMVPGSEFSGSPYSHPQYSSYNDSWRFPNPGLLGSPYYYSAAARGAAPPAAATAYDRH

effect of a mutation on the interaction | Variant
causing an interaction | C840A

Variants of: B1
Details: with PTCD3, Q96EY7-1

effect of a mutation on the interaction | Variant
with no effect | C840A

Variants of: B1
Details: with ubql2_human UBQLN2, Q9UHD9
Target sequence in this assay (Q9UHD9 whole entry): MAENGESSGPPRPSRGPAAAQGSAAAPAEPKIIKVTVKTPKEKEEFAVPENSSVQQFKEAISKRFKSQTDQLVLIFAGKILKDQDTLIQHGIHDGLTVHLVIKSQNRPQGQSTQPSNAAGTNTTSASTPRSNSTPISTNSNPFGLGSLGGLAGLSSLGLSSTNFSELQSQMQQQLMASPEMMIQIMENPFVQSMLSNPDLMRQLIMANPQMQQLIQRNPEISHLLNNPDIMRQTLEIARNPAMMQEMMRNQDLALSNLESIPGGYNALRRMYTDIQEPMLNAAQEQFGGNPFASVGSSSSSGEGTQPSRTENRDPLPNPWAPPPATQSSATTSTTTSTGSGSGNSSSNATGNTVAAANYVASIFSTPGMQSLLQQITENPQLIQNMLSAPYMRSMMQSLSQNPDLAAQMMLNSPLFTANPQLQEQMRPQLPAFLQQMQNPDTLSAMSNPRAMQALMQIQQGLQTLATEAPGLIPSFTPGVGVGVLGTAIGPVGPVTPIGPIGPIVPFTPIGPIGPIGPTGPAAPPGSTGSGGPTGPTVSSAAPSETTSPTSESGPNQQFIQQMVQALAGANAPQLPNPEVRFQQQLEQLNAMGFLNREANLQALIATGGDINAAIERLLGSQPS

effect of a mutation on the interaction | Variant
with no effect | C840A

Variants of: B1
Details: with UBQLN1, Q9UMX0-1
Target sequence in this assay (Q9UMX0 whole entry): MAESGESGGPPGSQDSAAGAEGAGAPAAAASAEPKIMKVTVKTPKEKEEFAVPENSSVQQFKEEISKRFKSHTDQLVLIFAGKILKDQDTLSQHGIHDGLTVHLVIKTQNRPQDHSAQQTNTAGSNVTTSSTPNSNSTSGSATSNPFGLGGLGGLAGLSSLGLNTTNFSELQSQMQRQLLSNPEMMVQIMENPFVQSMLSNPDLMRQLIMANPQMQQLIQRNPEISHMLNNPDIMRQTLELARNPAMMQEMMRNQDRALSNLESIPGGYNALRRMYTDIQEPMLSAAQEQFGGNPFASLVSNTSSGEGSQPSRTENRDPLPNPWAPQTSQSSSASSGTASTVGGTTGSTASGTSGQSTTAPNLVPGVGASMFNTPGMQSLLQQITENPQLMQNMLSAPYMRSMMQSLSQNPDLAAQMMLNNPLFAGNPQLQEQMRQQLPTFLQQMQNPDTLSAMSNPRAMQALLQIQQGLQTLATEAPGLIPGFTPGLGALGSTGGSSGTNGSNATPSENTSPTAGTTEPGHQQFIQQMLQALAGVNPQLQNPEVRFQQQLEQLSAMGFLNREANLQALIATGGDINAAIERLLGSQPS

effect of a mutation on the interaction | Variant
with no effect | C840A

Variants of: B2
Details: with TTC23L

effect of a mutation on the interaction | Variant
causing an interaction | C840A

Variants of: B3
Details: with ZNF446, Q9NWS9-2

effect of a mutation on the interaction | Variant
causing an interaction | C840A

Variants of: B4
Details: with ZNF250, P15622-3
Target sequence in this assay (P15622 other isoform, or with tags, fused parts or gaps): as the sequence (P15622 other isoform, or with tags, fused parts or gaps) above

effect of a mutation on the interaction | Variant
causing an interaction | C820A

Variants of: B4
Details: with PAX6, P26367-1
Target sequence in this assay (P26367 whole entry): as the sequence (P26367 whole entry) above

effect of a mutation on the interaction | Variant
causing an interaction | C820A

Variants of: B4
Details: with magac_human MAGEA12, P43365
Target sequence in this assay (P43365 whole entry): as the sequence (P43365 whole entry) above

effect of a mutation on the interaction | Variant
with no effect | C820A

Variants of: B4
Details: with PSMD4, P55036-1
Target sequence in this assay (P55036 whole entry): as the sequence (P55036 whole entry) above

effect of a mutation on the interaction | Variant
with no effect | C820A

Variants of: B4
Details: with PAX5, Q02548-1
Target sequence in this assay (Q02548 whole entry): as the sequence (Q02548 whole entry) above

effect of a mutation on the interaction | Variant
causing an interaction | C820A

Variants of: B4
Details: with PTCD3, Q96EY7-1

effect of a mutation on the interaction | Variant
with no effect | C820A

Variants of: B4
Details: with ubql2_human UBQLN2, Q9UHD9
Target sequence in this assay (Q9UHD9 whole entry): as the sequence (Q9UHD9 whole entry) above

effect of a mutation on the interaction | Variant
with no effect | C820A

Variants of: B4
Details: with UBQLN1, Q9UMX0-1
Target sequence in this assay (Q9UMX0 whole entry): as the sequence (Q9UMX0 whole entry) above

effect of a mutation on the interaction | Variant
with no effect | C820A

Variants of: B4
Details: with herc2_human HERC2, O95714

effect of a mutation on the interaction | Variant
causing an interaction | C820A

— IntAct's records for PubMed 29426014
